# Experimental data reported in IntAct's records for PubMed 32296183.
# B1: Very-long-chain enoyl-CoA reductase (Homo sapiens), Q9NZ01 (parent)
# chain: MKHYEVEILDAKTREKLCFLDKVEPHATIAEIKNLFTKTHPQWYPARQSLRLDPKGKSLKDEDVLQKLPVGTTATLYFRDLGAQISWVTVFLTEYAGPLFIYLLFYFRVPFIYGHKYDFTSSRHTVVHLACICHSFHYIKRLLETLFVHRFSHGTMPLRNIFKNCTYYWGFAAWMAYYINHPLYTPPTYGAQQVKLALAIFVICQLGNFSIHMALRDLRPAGSKTRKIPYPTKNPFTWLFLLVSCPNYTYEVGSWIGFAIMTQCLPVALFSLVGFTQMTIWAKGKHRSYLKEFRDYPPLRMPIIPFLL
# partner: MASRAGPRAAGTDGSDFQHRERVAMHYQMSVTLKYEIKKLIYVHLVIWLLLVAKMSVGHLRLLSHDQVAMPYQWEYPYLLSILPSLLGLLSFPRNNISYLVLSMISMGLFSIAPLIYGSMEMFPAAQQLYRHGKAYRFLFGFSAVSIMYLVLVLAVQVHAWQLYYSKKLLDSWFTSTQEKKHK
# B2: Very-long-chain enoyl-CoA reductase (Homo sapiens), Q9NZ01 (parent)
# chain: B1 chain
# partner: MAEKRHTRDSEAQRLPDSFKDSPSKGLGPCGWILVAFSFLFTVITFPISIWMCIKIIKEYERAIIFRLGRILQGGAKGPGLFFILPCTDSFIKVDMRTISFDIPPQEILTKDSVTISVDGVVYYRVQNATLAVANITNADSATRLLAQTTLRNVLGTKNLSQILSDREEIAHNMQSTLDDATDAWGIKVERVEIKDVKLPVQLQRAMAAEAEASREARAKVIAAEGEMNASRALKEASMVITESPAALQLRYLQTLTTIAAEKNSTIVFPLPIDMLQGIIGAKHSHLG
# B3: Golgi SNAP receptor complex member 2 (Homo sapiens), O14653 (parent)
# chain: MDPLFQQTHKQVHEIQSCMGRLETADKQSVHIVENEIQASIDQIFSRLERLEILSSKEPPNKRQNARLRVDQLKYDVQHLQTALRNFQHRRHAREQQERQREELLSRTFTTNDSDTTIPMDESLQFNSSLQKVHNGMDDLILDGHNILDGLRTQRLTLKGTQKKILDIANMLGLSNTVMRLIEKRAFQDKYFMIGGMLLTCVVMFLVVQYLT
# partner: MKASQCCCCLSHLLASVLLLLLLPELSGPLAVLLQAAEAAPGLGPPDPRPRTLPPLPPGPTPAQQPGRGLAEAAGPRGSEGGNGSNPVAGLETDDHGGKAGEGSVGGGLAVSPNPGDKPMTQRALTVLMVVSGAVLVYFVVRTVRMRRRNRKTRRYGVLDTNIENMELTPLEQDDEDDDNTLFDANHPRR
# B4: Catenin alpha-3 (Homo sapiens), Q9UI47-2 (parent)
# chain: MSAETPITLNIDPQDLQVQTFTVEKLLEPLIIQVTTLVNCPQNPSSRKKGRSKRASVLLASVEEATWNLLDKGEKIAQEATVLKDELTASLEEVRKESEALKVSAERFTDDPCFLPKREAVVQAARALLAAVTRLLILADMIDVMCLLQHVSAFQRTFESLKNVANKSDLQKTYQKLGKELENLDYLAFKRQQDLKSPNQRDEIAGARASLKENSPLLHSICSACLEHSDVASLKASKDTVCEEIQNALNVISNASQGIQNMTTPPEPQAATLGSALDELENLIVLNPLTVTEEEIRPSLEKRLEAIISGAALLADSSCTRDLHRERIIAECNAIRQALQDLLSEYMNNAGKKERSNTLNIALDNMCKKTRDLRRQLRKAIIDHVSDSFLDTTVPLLVLIEAAKNGREKEIKEYAAIFHEHTSRLVEVANLACSMSTNEDGIKIVKIAANHLETLCPQIINAALALAARPKSQAVKNTMEMYKRTWENHIHVLTEAVDDITSIDDFLAVSGMFLFF
# partner: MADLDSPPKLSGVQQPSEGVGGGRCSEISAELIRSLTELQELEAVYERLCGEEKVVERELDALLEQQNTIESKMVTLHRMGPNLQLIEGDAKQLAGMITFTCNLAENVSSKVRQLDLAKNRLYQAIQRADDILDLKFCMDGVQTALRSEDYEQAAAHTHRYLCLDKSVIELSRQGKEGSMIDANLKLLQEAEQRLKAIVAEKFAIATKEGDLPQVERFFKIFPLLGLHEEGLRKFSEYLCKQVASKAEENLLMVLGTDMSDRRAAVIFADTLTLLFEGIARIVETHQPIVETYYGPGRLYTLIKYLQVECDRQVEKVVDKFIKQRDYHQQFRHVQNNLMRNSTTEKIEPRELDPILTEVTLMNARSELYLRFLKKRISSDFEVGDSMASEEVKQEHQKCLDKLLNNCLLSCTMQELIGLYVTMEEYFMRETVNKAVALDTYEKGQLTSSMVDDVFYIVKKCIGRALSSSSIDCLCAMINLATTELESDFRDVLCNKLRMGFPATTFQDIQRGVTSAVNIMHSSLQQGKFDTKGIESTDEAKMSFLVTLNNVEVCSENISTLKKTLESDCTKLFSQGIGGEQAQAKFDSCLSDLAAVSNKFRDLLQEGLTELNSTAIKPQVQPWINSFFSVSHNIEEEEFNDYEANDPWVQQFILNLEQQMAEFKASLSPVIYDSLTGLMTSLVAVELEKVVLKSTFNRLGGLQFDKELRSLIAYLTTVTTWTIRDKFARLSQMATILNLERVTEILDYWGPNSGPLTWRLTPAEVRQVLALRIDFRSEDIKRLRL
# B5: Golgi SNAP receptor complex member 2 (Homo sapiens), O14653 (parent)
# chain: B3 chain
# partner: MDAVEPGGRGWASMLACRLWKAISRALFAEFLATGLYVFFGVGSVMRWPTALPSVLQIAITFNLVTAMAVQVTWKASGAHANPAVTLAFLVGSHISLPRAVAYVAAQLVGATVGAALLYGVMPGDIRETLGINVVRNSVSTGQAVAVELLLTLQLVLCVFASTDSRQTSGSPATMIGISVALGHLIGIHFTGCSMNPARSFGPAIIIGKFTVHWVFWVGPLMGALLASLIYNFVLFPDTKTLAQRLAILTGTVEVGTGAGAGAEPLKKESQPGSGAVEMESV
# Variants of: B1
# Conditions: with jagn1_human JAGN1, Q8N5M9
row,Variant,effect of a mutation on the interaction
1,MKHYEVEILDAKTREKLCFLDKVEPHATIAEIKNLFTKTHPQWYPARQSLRLDPKGKSLKDEDVLQKLPVGTTATLYFRDLGAQISWVTVFLTEYAGPLFIYLLFYFRVPFIYGHKYDFTSSRHTVVHLACICHSFHYIKRLLETLFVHRFSHGTMPLRNIFKNCTYYWGFAAWMAYYINHLLYTPPTYGAQQVKLALAIFVICQLGNFSIHMALRDLRPAGSKTRKIPYPTKNPFTWLFLLVSCPNYTYEVGSWIGFAIMTQCLPVALFSLVGFTQMTIWAKGKHRSYLKEFRDYPPLRMPIIPFLL [P182L],with no effect

# Variants of: B2
# Conditions: with stom_human STOM
row,Variant,effect of a mutation on the interaction
1,MKHYEVEILDAKTREKLCFLDKVEPHATIAEIKNLFTKTHPQWYPARQSLRLDPKGKSLKDEDVLQKLPVGTTATLYFRDLGAQISWVTVFLTEYAGPLFIYLLFYFRVPFIYGHKYDFTSSRHTVVHLACICHSFHYIKRLLETLFVHRFSHGTMPLRNIFKNCTYYWGFAAWMAYYINHLLYTPPTYGAQQVKLALAIFVICQLGNFSIHMALRDLRPAGSKTRKIPYPTKNPFTWLFLLVSCPNYTYEVGSWIGFAIMTQCLPVALFSLVGFTQMTIWAKGKHRSYLKEFRDYPPLRMPIIPFLL [P182L],disrupting interaction strength

# Variants of: B3
# Conditions: with FAM174A
row,Variant,effect of a mutation on the interaction
1,MDPLFQQTHKQVHEIQSCMGRLETADKQSVHIVENEIQASIDQIFSRLERLEILSSKEPPNKRQNARLRVDQLKYDVQHLQTALRNFQHRRHAREQQERQREELLSRTFTTNDSDTTIPMDESLQFNSSLQKVHNGMDDLILDWHNILDGLRTQRLTLKGTQKKILDIANMLGLSNTVMRLIEKRAFQDKYFMIGGMLLTCVVMFLVVQYLT [G144W],with no effect

# Variants of: B4
# Conditions: with cog4_human COG4, Q9H9E3
row,Variant,effect of a mutation on the interaction
1,MSAETPITLNIDPQDLQVQTFTVEKLLEPLIIQVTTLVNCPQNPSSRKKGRSKRASVLLASVEEATWNLLDKGEKIAQEATVLKDELTASLEEDRKESEALKVSAERFTDDPCFLPKREAVVQAARALLAAVTRLLILADMIDVMCLLQHVSAFQRTFESLKNVANKSDLQKTYQKLGKELENLDYLAFKRQQDLKSPNQRDEIAGARASLKENSPLLHSICSACLEHSDVASLKASKDTVCEEIQNALNVISNASQGIQNMTTPPEPQAATLGSALDELENLIVLNPLTVTEEEIRPSLEKRLEAIISGAALLADSSCTRDLHRERIIAECNAIRQALQDLLSEYMNNAGKKERSNTLNIALDNMCKKTRDLRRQLRKAIIDHVSDSFLDTTVPLLVLIEAAKNGREKEIKEYAAIFHEHTSRLVEVANLACSMSTNEDGIKIVKIAANHLETLCPQIINAALALAARPKSQAVKNTMEMYKRTWENHIHVLTEAVDDITSIDDFLAVSGMFLFF [V94D],with no effect

# Variants of: B5
# Conditions: with aqp6_human AQP6, Q13520
row,Variant,effect of a mutation on the interaction
1,MDPLFQQTHKQVHEIQSCMGRLETADKQSVHIVENEIQASIDQIFSRLERLEILSSKEPPNKRQNARLRVDQLKYDVQHLQTALRNFQHRRHAREQQERQREELLSRTFTTNDSDTTIPMDESLQFNSSLQKVHNGMDDLILDWHNILDGLRTQRLTLKGTQKKILDIANMLGLSNTVMRLIEKRAFQDKYFMIGGMLLTCVVMFLVVQYLT [G144W],with no effect
